In PMC8251345, “Entropic pressure controls the oligomerization of the Vibrio cholerae ParD2 antitoxin” (Acta Crystallographica. Section D, Structural Biology, 2021):
Values joined by “and” are separate entries in the source; they are usually repeats but may differ in a detail not shown here. Identical values can stand only once. Like-named read-outs stand apart in the source and are kept apart here.

B1: Vibrio cholerae ParD2 antitoxin (natural protein)
chain: MAKNTSITLGEHFDGFITSQIQSGRYGSASEVIRSALRLLENQETKLQSLRQLLIEGEQSGDADYDLDSFINELDSENIR
notes: also called VcParD2

What was measured:
[1] = target: N-terminal domain of Vibrio cholerae ParD2 as crystallised (V. cholerae); test: crystal structure
[2] = target: N-terminal domain of Vibrio cholerae ParD2 as crystallised (V. cholerae); test: crystal structure; remark: listed apart in the source
[3] = target: the molecule itself; test: […]; pH 8.0 and pH 5.6, […]
SAXS (SEC-SAXS) = target: the molecule itself; test: SAXS (SEC-SAXS)
native MS = target: the molecule itself; test: native MS

| Molecule | stoichiometry N [1] | stoichiometry N [2] | stoichiometry N [3] | stoichiometry N (SAXS (SEC-SAXS)) | stoichiometry N (native MS) |
| --- | --- | --- | --- | --- | --- |
| N-terminal domain of Vibrio cholerae ParD2 as crystallised (domain or fragment) | 16 | 2 |  |  |  |
| B1 |  |  | 10 and 8 | 12 | 2 and 4 |
